T1: recombinant human VE-cad (Asp48-Gln593 fused to human IgG Fc) (human, UniProt P33151 48-593)
T1 sequence (looked up): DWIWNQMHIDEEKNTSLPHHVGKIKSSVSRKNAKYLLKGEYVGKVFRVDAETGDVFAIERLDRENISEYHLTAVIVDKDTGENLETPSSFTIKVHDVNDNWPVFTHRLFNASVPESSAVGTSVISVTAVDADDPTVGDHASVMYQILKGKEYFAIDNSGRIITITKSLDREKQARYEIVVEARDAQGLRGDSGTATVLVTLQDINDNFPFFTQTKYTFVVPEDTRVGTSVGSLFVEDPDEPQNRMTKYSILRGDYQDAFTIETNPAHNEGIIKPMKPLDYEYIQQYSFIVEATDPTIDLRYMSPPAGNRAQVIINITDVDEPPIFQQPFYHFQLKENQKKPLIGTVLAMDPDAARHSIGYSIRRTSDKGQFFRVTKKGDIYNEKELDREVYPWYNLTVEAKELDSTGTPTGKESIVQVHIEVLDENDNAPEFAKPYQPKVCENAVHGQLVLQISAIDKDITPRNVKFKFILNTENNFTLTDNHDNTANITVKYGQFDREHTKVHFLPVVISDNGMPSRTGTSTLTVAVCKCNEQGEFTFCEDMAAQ

T2: recombinant human E-Cad (Gln23 - Pro621 fused to human IgG Fc) (human, UniProt P12830 23-621)
T2 sequence (looked up): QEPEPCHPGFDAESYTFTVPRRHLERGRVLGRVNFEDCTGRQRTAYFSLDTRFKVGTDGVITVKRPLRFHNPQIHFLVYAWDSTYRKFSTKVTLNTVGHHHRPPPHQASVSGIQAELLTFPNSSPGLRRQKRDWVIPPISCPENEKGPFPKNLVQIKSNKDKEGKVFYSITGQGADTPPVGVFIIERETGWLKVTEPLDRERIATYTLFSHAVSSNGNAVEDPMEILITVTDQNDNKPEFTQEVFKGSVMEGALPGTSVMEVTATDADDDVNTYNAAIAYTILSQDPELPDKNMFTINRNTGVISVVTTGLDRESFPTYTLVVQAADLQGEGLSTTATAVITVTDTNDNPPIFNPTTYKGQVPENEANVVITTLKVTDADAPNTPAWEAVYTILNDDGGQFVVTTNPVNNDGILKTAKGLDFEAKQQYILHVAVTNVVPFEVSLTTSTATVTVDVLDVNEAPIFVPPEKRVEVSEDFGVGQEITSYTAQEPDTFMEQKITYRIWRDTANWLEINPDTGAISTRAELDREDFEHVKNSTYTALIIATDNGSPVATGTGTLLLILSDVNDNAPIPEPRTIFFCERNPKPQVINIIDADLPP

B1: recombinant LIC10831, histidine tag removed (natural protein)
chain: EEPGTYRDLTKALQNPLEVRVLDLSRQELKTLPIEIGKLKNLQRLYLHYNQLTVLPQEIEQLKNLQLLYLRSNRLTTLPKEIEQLKNLQVLDLGSNQLTVLPQEIEQLKNLQLLYLHSNRLTTLSKDIEQLQNLKSLDLSNNQLTTLPNEIEQLKNLKSLYLSENQFATFPKEIGQLQNLKVLFLNNNQITILPNEIAKLKKLQYLYLSDNQLITLPKEIEQLKNLQTLDLSYNQLTILPKEVGQLENLQTLDLRNNQLKTLPKEIEQLKNLQTLFLSNNQLTILPQEIGKLKNLLWLSLVYNQLTTLPNEIEQLKNLQTLYLNNNQFSSQEKKRIRKLLPKCQIYFD

Key:
[1] = target: E-cadherin (Homo sapiens) (UniProt P12830); conditions: cited from earlier work
[2] = target: T1, recombinant human VE-cad (Asp48-Gln593 …); experiment: SPR
[3] = target: T2, recombinant human E-Cad (Gln23 - Pro621 …); experiment: SPR

Chain of E-cadherin (Homo sapiens) (P12830 155-709): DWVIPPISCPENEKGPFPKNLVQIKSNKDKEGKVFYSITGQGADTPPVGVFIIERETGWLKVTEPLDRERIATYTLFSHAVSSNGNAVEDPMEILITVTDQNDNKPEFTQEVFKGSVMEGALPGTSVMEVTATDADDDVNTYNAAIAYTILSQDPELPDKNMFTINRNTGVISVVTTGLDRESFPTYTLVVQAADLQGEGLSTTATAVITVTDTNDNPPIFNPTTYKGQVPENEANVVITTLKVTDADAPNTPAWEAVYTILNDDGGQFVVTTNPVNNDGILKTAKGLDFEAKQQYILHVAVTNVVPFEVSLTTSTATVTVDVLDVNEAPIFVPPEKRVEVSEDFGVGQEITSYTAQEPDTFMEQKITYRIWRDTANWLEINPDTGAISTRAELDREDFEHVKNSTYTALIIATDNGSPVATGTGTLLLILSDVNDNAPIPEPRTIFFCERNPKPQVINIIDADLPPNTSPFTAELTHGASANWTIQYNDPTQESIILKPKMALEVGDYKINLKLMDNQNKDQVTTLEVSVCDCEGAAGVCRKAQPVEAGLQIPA

Molecule | Kd [1] [µM] | Kd [2] [µM] | Kd [3] [µM]
InlA (from UniProt P0DJM0) | 8 | – | –
B1 | – | 5.8 | 2.3
